Target: His-MKRN1 wt;His-PABPC1 (human (Homo sapiens);human (Homo …, UniProt Q9UHC7;P11940 1-482;1-636, |))
Experiment: pull-down; PABPC1 strongly increases MKRN1 recovery; Binding: 50 mM Tris-HCl pH 7.4, 500 mM KCl, 12.5 mM MgCl2, 1% Triton X-100, 1 h, 4 °C; wash: 200 mM NaCl, 10 mM MgCl2, 50 mM HEPES pH 7.4, 0.5% Igepal CA630, 1% Triton X-100
Settings: protein: recombinant;recombinant; tags: N-His6;N-His6; copies: 1;1; label: 3' biotin

Chain of His-MKRN1 wt;His-PABPC1 (human (Homo sapiens);human (Q9UHC7 whole entry, chain 1 of 2): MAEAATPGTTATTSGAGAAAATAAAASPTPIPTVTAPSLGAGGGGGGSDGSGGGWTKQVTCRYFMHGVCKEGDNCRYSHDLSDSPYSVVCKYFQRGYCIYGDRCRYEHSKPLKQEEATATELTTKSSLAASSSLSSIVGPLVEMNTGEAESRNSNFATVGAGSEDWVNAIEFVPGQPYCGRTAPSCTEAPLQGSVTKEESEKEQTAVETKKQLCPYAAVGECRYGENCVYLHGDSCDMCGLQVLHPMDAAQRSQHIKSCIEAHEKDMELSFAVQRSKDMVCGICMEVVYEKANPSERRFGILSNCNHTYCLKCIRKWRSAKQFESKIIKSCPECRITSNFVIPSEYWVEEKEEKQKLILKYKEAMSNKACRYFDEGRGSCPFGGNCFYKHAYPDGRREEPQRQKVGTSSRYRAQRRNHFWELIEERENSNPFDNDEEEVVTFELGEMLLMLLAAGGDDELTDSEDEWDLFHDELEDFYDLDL
Chain of His-MKRN1 wt;His-PABPC1 (human (Homo sapiens);human (P11940 whole entry, chain 2 of 2): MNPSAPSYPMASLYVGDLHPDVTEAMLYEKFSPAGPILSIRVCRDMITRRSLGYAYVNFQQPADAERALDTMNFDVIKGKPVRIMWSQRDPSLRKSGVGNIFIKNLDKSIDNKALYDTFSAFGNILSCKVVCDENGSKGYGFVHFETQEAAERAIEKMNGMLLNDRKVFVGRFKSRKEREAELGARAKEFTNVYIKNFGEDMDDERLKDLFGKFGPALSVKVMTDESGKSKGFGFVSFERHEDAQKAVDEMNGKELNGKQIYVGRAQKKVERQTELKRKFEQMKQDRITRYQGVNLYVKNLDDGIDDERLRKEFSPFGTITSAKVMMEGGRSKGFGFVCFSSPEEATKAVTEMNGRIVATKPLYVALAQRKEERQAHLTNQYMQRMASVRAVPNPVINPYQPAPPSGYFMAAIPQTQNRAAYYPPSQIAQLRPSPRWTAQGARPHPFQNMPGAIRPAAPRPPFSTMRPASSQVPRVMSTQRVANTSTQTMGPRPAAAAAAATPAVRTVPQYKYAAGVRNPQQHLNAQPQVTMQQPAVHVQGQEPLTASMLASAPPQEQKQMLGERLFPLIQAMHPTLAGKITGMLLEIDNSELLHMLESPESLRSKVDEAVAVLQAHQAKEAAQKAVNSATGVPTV

## GGAAAUAAACUGUAGAGUUCCAAAAAAAAAAAAAAAAAAAAA (ssRNA) [A20 RNA (SRSF4 3' UTR end + A20)]
  binding result: binds

Reference: article PMC6805484, “The RNA-binding ubiquitin ligase MKRN1 functions in ribosome-associated quality control of poly(A) translation”
